Earlier results, collected in PMC8694941 (RSC Advances, 2021).

Conditions: commonly used comparator tracer

[^68Ga]Ga-DOTA-c(RGDfK) (head to tail)
partition coefficient (log D): around −3.43
